Data as given in publication PMC12014896 (2025).

Target: SARS-CoV-2 spike RBD (Wuhan-Hu-1) (Severe acute respiratory syndrome …, UniProt P0DTC2)
Assay: SPR

Binder	Kd
COVIC-119 (antibody) chain 1: QVQLQESGGGLVQAGGSLRLSCAASGRTFSEYAMGWFRQAPGKEREFVATISWSGGSTYYTDSVKGRFTISRDNAKNTVYLQMNSLKPDDTAVYYCAAAGLGTVVSEWDYDYDYWGQGTQVTVSSGGSGGSQVQLQESGGGLVQAGGSLRLSCAASGRTFSEYAMGWFRQAPGKEREFVATISWSGGSTYYTDSVKGRFTISRDNAKNTVYLQMNSLKPDDTAVYYCAAAGLGTVVSEWDYDYDYWGQGTQVTVSSGGGGSGGGGSASTKGPSVFPLAPSSKSTSGGTAALGCLVKDYFPEPVTVSWNSGALTSGVHTFPAVLQSSGLYSLSSVVTVPSSSLGTQTYICNVNHKPSNTKVDKKVEPKSCDKTHTKKKPLDGEYFTLQIRGRERFEMFRELNEALELKDAQAGKEPG chain 2: QVQLQESGGGLVQAGGSLRLSCAASGRTFSEYAMGWFRQAPGKEREFVATISWSGGSTYYTDSVKGRFTISRDNAKNTVYLQMNSLKPDDTAVYYCAAAGLGTVVSEWDYDYDYWGQGTQVTVSSGGSGGSQVQLQESGGGLVQAGGSLRLSCAASGRTFSEYAMGWFRQAPGKEREFVATISWSGGSTYYTDSVKGRFTISRDNAKNTVYLQMNSLKPDDTAVYYCAAAGLGTVVSEWDYDYDYWGQGTQVTVSSGGGGSGGGGSKRTVAAPSVFIFPPSDEQLKSGTASVVCLLNNFYPREAKVQWKVDNALQSGNSQESVTEQDSKDSTYSLSSTLTLSKADYEKHKVYACEVTHQGLSSPVTKSFNRGEC	179 nM
COVIC-299 (antibody, V domains shown) VH: EVQLVESGGGLVQPGGSLRLSCAASGLIVSRNYMSWVRQAPGKGLEWVSVIYSGGSTFYADSVKGRFTISRDNSKNTLYLQMNSLRAEDTAVYYCARDLNIAGGFDIWGQGTMVTVSS VL: DIQLTQSPSFLSASVGDRVTITCRASQGISSYLAWYQQKPGKAPKLLIYAASTLQSGVPSRFSGSGSGTDFTLTISSLQPEDFATYYCQHLNIDPITFGQGTRLEIK	0.332 nM
COVIC-332 (antibody, V domains shown) VH: QVQLVQSGAEVKKPGSSLKVSCKASGGTFNNFAISWVRQAPGQGPEWMGRINPILSAAKYAQKFQGRLTITADKSTTTAYMELSSLRSEDTAVYYCAPTGTGESWWFDPWGQGTLVTVSS VL: QSVLTQPPSASGTPGQRVTISCSGSSSNIGTNYVYWYQQLPGTAPKVLIYGNNQRPSGVPDRFSGSKSGSSASLAISGLRSEDEADYYCAAWDDSLSGPVFGGGTKLTVL	0.111 nM
COVIC-23 (antibody, V domains shown) VH: EVQLLESGGGLVQPGGSLRLSCAASGFTFSNYPMNWVRQAPGKGLEWVSTISGSGGNTFYADSVKGRFTISRDNSKNTLYLQMNSLRAEDTAVYYCVRHDEYSFDYWGQGTLVTVSS	71.3 nM
COVIC-42 (antibody, V domains shown) VH: EVQLVESGGGLIQPGGSLRLSCAASGVIVSSNYMSWVRQAPGKGLEWVSVIYSGGSTYYADSVKGRFTISRDNSKNTLYLQMNSLRAEDTAVYYCARDLDVSGGMDVWGQGTTVTVSS VL: not shown	11 nM
COVIC-152 (antibody, V domains shown) VH: QVQLQESGPGLVKPSQTLSLTCTVSGGSISSYGYYWSWIRQHPGKGLEWIGYIYYSGSTYYNPSLKSRVTMSVDTSKNQLSLRLNSVSAADTAVYYCARDFGGNSNYFDYWGQGTLVTVSS VL: AIQLTQSPSSLSASVGDRVTITCRASQGISSALAWYQQKPGKAPNLLIYDASSLESGVPSRFSGSGSGTDFTLTISSLQPEDFATYYCQQFNSSPLTFGGGTKVEIKR	3.02 nM
COVIC-159 (antibody, V domains shown) VH: EVQLVESGGGLIQPGGSLRLSCAASGFTVSSNYMNWVRQAPGKGLEWVSVIYSGGSTYYADSVKGRFTISRDNSKNTLFLQMNSLRAEDSAVYYCARDLGPYGVDVWGQGTTVTVSS VL: DIQLTQSPSFLSASVGDRVTITCWASQGISSYLAWYQQKPGKAPKLLIYAASTLQSGVPSRFSGSGSGTEFTLTISSLQPEDFATYYCQELNSYPLTFGQGTRLEIKR	24.9 nM
COVIC-263 (antibody, V domains shown) VH: QVQLQESGPRLVKPSETLSLTCTVSGGSISGSNYFWGWIRQPPGKGLEWIGTIYYGGSTYYNPSLKSRVTISVDTSENQFSLKLSSVTAADTAVYYCANLAWLRGYFDYWGQGTLVTVSS VL: NFMLTQPHSVSESPGKTVTISCTRSSGSIASNYVQWYQQRPGSAPTTVIYEDNQRPSGVPDRFSGSIDSSSNSVSLTISGLKTEDEADYYCQSYDSSNWVFGGGTKLTVLG	0.0861 nM
COVIC-28 (antibody, V domains shown) VH: QVQLVQSGAEVKKPGASVKVSCKASGYTFTSYYMHWVRQAPGQGLEWMGIINSSGGSTSYAQKFQGRVTMTRDTSTSTVYMELSSLRSEDTAVYYCARPPRNYYDRSGYYQRAEYFQHWGQGTLVTVSS VL: DIQLTQSPSSLSASVGDRVTITCQASQDISNYLNWYQQRPGKAPKLLIYDASNLETGVPSRFSGSGSGTDFTFTISSLQPEDIATYYCQQYDNPPLTFGGGTKLEIK	12.3 nM
COVIC-147 (antibody, V domains shown) VH: EVQLVESGGGLIQPGGSLRLSCAASGFTVSSIYMSWVRQAPGKGLEWVSIIYSRGSTDYADSVKGRFTISRDISKNTLYLQMNSLRAEDTAVYYCARDGTMVRGVHAFDIWGQGTMVTVSS VL: DIQMTQSPPSLSASIGDRVTITCQASQDISNYLNWYQQKPGKAPKLLIYDASNLETGVPSRFSGSGSGTDFTLTISNLQPEDIVTYYCQQYDNLPSSFGQGTKLEIKR	2.3 nM
COVIC-185 (antibody, V domains shown) VH: QVQLVQSGAEVKKPGASVRVSCKASGYTFTGYYMHWVRQAPGQGLEWMGWINPISDGTNYAQKFQGWVTMTRDTSISTVYMELSRLRSDDTAVYYCARGGSRCSGGNCYGWAYDAFDIWGQGTMITVSS VL: QSALTQPASVSGSPGQSITISCTGTSSDVGGYNFVSWYQQHPGKAPKLMIYDVSKRPSGVSNRFSGSKSGNTASLTISGLQAEDEADCYCSSYTSSSTFVFGTGTKVTVL	12.3 nM
COVIC-359 (antibody, V domains shown) VH: EVQLVESGGGLVQPGGSLRLSCKASGISVAPHAVTWVRQAPGKGLEWIGVIASNADTYYASWAKGRFTISRDNSKNTLYLQMNSLRAEDTAVYYCARHPGSAGYGYTYYYAMDPWGQGTLVTVSS VL: DIQMTQSPSSLSASVGDRVTITCKASEDIRYGLNWYQQKPGKAPKLLIYGANTLEAGVPSRFSGSGSGTDYTLTISSLQPEDFATYYCQQGYSTPLTFGGGTKVEIK	0.0139 nM
COVIC-303 (antibody, V domains shown) VH: QVTLKESGPVLVKPTETLTLTCTVSGFSLSNARMGVSWIRQPPGKALEWLAHIFSNGEKSYSTSLKSRLTISKDTSKSQVVLTMTNMDPVDTATYYCARTLDYYDSSGYLVGGAFDIWGQGTMVTVSS VL: QPGLTQPPSVSLAPGQTARITCGGNNIGSKSVHWYQQKPGQAPVLVVYDDSDRPSGIPERFSGSNAGNTATLTISRVEAGDEADYYCQVWDSRSDQYVFGTRTKLTVLG	0.168 nM
COVIC-334 (antibody, V domains shown) VH: QMQLVQSGPEVKKPGTSVKVSCKASGFTFSSSAVQWVRQARGQGLEWIGWIVVGSGNANYAQKLQERVSITRDMSTSTAYMELSSLRPEDTAVYYCAAPHCSRTICHDGFDMWGQGTMVTVSS VL: EIVLTQSPGTLSLSPGERATLSCRASQSVRSSYLAWYQQKPGQAPRLLMFVASSRATGIPDRFSGSGSGTDFTLTISRLEPEDFAVYYCQQYDTSPWTFGQGTKVEIK	0.0568 nM
